Legend:
[1] = molecular target: T1, Human PD-L1 His (human PD-L1 ECD with C-terminal His tag) (human, UniProt Q9NZQ7 19-238); assay: ELISA, biotin-PD-L1 to plate-bound PD-1, antibody titrated
T1 construct: Biotinylated in ELISA and AlphaScreen assays; also called hPD-L1-his; biotinylated PD-L1 his
Experimental: (§1) Excess protein was removed by washing with PBS-Tween (0.1% v/v) and the wells were blocked with 1% w/v bovine serum albumin (BSA, Sigma) in PBS for 1 hour at room temperature, after which plates were washed with PBS-Tween as above. 60 μL of a titration (three-fold serial dilution) of antibody was added to a 96-well, non-binding plate diluted in ELISA assay buffer (PBS +0.1% BSA). […] The plate was incubated for 30 minutes before transferring 50 μL to the coated plates. The coated plates were incubated for 1 hour at room temperature. Excess protein was removed by washing with PBS-Tween (0.1% v/v). PD-L1 binding was detected using streptavidin labelled europium (Perkin Elmer) diluted 1/1000 in DELFIA assay buffer (Perkin Elmer). The plates were washed with TBS (Tris buffered saline)-Tween (0.1% v/v) and 50 μL/well of DELFIA Enhancement solution (Perkin Elmer) was added to the plate. Time-resolved fluorescence was measured at 615 nm on an Envision plate reader (PerkinElmer). Percentage specific binding was calculated as defined in Equation 3. IC50 values were determined using GraphPad Prism software by curve fitting using a four-parameter logistic equation (Equation 4). Values for KM121 antibodies are a mean of three independent experiments. Values for KM122 are from a single experiment.

[2] = molecular target: T1, Human PD-L1 His (human PD-L1 ECD with …); assay: ELISA, biotin-PD-L1 to plate-bound CD80, antibody titrated
Experimental: as §1

[3] = molecular target: T2, Cyno PD-L1 FLAG (cynomolgus PD-L1 ECD with FLAG tag) (cynomolgus monkey); assay: SPR 37C, antibody captured, PD-L1 analyte
T2 construct: also called cynomolgus monkey PD-L1-FLAG

[4] = molecular target: T1, Human PD-L1 His (human PD-L1 ECD with …); assay: SPR 37C, antibody captured, PD-L1 analyte
[5] = molecular target: T3, Human PD-L1 expressed on cells (human, UniProt Q9NZQ7 19-290); assay: cell-based or functional assay
[6] = molecular target: T3, Human PD-L1 expressed on cells; assay: flow cytometry on CHO hPD-L1 cells, competitor biotin-PD-1-Fc, n = 2
Experimental: (§2) 150 μL FACS buffer is added and cells washed as described above. […] Cells are incubated at 4° C. for 60 minutes. Cells are washed twice with 150 μL FACS buffer, centrifuging at 300 g for 3 minutes after each wash step and aspirating supernatant. Cells are fixed, washed and resuspended for analysis as above. APC signal intensity (geometric mean) is measured by flow cytometry using a Beckman Coulter CYTOFLEX instrument. Data is plotted as percentage of receptor binding.

[7] = molecular target: T3, Human PD-L1 expressed on cells; assay: flow cytometry on CHO hPD-L1 cells, competitor biotin-CD80-Fc, n = 1
Experimental: as §2
(§3) All other steps are performed as per plate 2.

[8] = molecular target: T3, Human PD-L1 expressed on cells; assay: flow cytometry on CHO hPD-L1 cells, competitor biotin-CD80-Fc, n = 2
Experimental: as §2, §3

[9] = molecular target: T3, Human PD-L1 expressed on cells; assay: flow cytometry on CHO hPD-L1 cells, competitor biotin-PD-1-Fc, n = 1
Experimental: as §2

[10] = molecular target: T3, Human PD-L1 expressed on cells; assay: cell-based or functional assay; remark: listed apart in the source
[11] = molecular target: T2, Cyno PD-L1 FLAG (cynomolgus PD-L1 ECD …); assay: SPR 25C, antibody captured, PD-L1 analyte
Experimental: (§4) Label-free surface plasmon resonance (SPR) analysis was carried out on the ProteOn XPR36 (BioRad) array SPR machine. An anti-human IgG capture surface was created on a GLC biosensor chip using a combination of anti-human Fc antibodies (Jackson Labs 09-005-008,109-006-008 and 309-006-008) by amine coupling. […] The data was analysed using the 1:1 model inherent to the ProteOn XPR36 analysis software.

[12] = molecular target: T1, Human PD-L1 His (human PD-L1 ECD with …); assay: SPR 25C, antibody captured, PD-L1 analyte
Experimental: as §4

[13] = molecular target: T3, Human PD-L1 expressed on cells; assay: cell-based or functional assay; remark: listed apart in the source
[14] = molecular target: T4, Mouse PD-L1 ECD His (mouse, UniProt Q9EP73 19-239); assay: SPR 25C and 37C
T4 construct: also called mouse PD-L1 (his-tagged)

[15] = molecular target: T1, Human PD-L1 His (human PD-L1 ECD with …); assay: SPR 25C, antibody captured, PD-L1 analyte; remark: listed apart in the source

T3 sequence (Q9NZQ7 19-290 limits assumed): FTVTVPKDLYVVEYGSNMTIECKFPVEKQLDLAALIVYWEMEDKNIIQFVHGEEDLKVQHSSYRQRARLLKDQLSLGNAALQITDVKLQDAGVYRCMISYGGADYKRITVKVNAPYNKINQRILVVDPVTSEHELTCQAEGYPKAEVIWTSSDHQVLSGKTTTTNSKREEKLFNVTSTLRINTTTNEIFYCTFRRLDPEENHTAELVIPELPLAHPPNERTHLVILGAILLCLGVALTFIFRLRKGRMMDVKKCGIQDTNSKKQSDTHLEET
T1 sequence (Q9NZQ7 19-238 limits assumed): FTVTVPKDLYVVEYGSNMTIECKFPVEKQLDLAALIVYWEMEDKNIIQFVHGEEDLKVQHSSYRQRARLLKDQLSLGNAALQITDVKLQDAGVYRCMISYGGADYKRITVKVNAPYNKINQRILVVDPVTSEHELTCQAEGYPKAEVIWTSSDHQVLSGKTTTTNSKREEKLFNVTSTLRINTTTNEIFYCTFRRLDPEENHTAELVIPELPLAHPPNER
T2 sequence (chain, as listed by the source limits assumed): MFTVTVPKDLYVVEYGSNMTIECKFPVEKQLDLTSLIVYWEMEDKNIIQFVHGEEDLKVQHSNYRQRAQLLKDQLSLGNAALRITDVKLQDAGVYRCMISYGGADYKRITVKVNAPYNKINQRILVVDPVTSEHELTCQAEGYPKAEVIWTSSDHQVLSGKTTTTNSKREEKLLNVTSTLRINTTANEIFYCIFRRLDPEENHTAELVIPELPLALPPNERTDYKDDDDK
T4 sequence (Q9EP73 other isoform, or with tags, fused parts or gaps): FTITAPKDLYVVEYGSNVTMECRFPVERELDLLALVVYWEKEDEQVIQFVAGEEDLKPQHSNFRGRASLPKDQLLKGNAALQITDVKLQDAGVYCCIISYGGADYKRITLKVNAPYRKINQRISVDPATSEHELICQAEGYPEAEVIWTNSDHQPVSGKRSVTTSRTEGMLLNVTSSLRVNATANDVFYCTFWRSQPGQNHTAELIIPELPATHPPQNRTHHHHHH

| Binder | IC50 [1] | IC50 [2] | Kd [15] | also measured |
| --- | --- | --- | --- | --- |
| 411B08 (antibody, human IgG1, kappa, V domains shown) VH: EVQLVESGGGLVQPGGSLRLSCAASGFTFSSYWMSWVRQAPGKGLEWVANIKEDGSEKYYVDSVKGRFTISRDNAKNSLYLQMNSLRAEDTSVYYCARNRLYSDFLDNWGQGTLVTVSS VL: DIQMTQSPSSVSASVGDRVTITCRASQGVSSWLAWYQQKSGKAPKLLIYGASSLQSGVPSRFSGSGSGTEFILTISSLQPEDFATYYCQQANSIPFTFGPGTKVDIKR | 2.22 nM | 1.6 nM | – | – |
| 385F01 (antibody, human IgG1, kappa, V domains shown) VH: EVQLVESGGGLVQPGGSLRLSCAASGFTFSSYWMSWVRQAPGKGLEWVANIKEDGSEKYYVDSVKGRFTISRDNAKNSLYLQMNSLRAEDTSVYYCARNRLYSDFLDNWGQGTLVTVSS VL: DIQMTQSPSSVSASVGDRVTITCRASQGVSSWLAWYQQKSGKAPKLLIYGASSLQSGVPSRFSGSGSGTEFILTISSLQPEDFATYYCQQANSIPFTFGPGTKVDIKR | 2.25 nM | 1.76 nM | – | – |
| 416E01 (human IgG1) (antibody, V domains shown) VH: EVQLAESGGGLVQPGGSLRLSCAASGFTFSNYAMSWVRQTPGKGLEWVSAISFSGGTTYYADSVKGRFTISRDNSKNTLYLHMNSLRADDTAVYYCAKDEAPAGATFFDSWGQGTLVTVSS VL: DIQMTQSPSSVSASVGDRVTITCRASQGIRRWLAWYQQKPGKAPKLLISGASSLQSGVPSRFSGSGSGTDFTLIITSLQPEDFATYYCQQANSFPITFGQGTRLEIKR | 1.72 nM | 0.98 nM | – | Kd [3]: 0.998 nM; Kd [4]: 0.511 nM; EC50, ADCC reporter assay, n = 1 [5]: 80 pM; EC50, ADCC reporter assay, n = 2 [5]: 10.6 pM; EC50, ADCC reporter assay, n = 3 [5]: 22.9 pM; max fold induction, ADCC reporter assay, n = 1 [5]: 32.1 fold; max fold induction, ADCC reporter assay, n = 2 [5]: 33.8 fold; max fold induction, ADCC reporter assay, n = 3 [5]: 60.2 fold; IC50 [6]: 0.89 nM; IC50 [7]: 1.04 nM; IC50 [8]: 0.89 nM; IC50 [9]: 0.81 nM; EC50, IL-2 induction, murine T cell hybridoma assay, n = 1 [10]: 0.19 nM; EC50, IL-2 induction, murine T cell hybridoma assay, n = 2 [10]: 0.15 nM; EC50, IL-2 induction, murine T cell hybridoma assay, n = 3 [10]: 0.14 nM; Kd [11]: 0.411 nM; Kd [12]: 0.193 nM; mean EC50, IFNγ induction, monocyte-T cell co-culture [13]: 0.064 nM; mean fold increase IFNγ, monocyte-T cell co-culture [13]: 2.23 fold; binding result [14]: no binding |
| 1D05 V to A & F to S change in VH (Seq ID No: 342), IgG1 disabled (LAGA), with 1D05 kappa (antibody, V domains shown, Entry 342 is a whole heavy chain; also called 1D05 HC mutant 4) VH: EVQLVESGGGLVQPGRSLRLSCAASGFTFDDYAMHWVRQAPGKGLEWVSGISWIRTGIGYADSVKGRFTISRDNAKNSLYLQMNSLRAEDTALYYCAKDMKGSGTYGGWFDTWGQGTLVTVSS VL: not shown | – | – | 0.23 nM | – |
| 1D05 V to A & F to S change in VH (Seq ID No: 342), IgG1 disabled (LAGA), with 1D05 kappa V to A change (Seq ID No: 50) (antibody, V domains shown, See note of m60) VH: EVQLVESGGGLVQPGRSLRLSCAASGFTFDDYAMHWVRQAPGKGLEWVSGISWIRTGIGYADSVKGRFTISRDNAKNSLYLQMNSLRAEDTALYYCAKDMKGSGTYGGWFDTWGQGTLVTVSS VL: not shown | – | – | 1.94 nM | – |
| 1D05 V to A change in VH (Seq ID No: 47), IgG1 disabled (LAGA), with 1D05 kappa (antibody, V domains shown, Listing entry 47 is a whole heavy chain said to carry the IgG1 disabled (LAGA) constant region; also called 1D05 HC mutant 1) VH: EVQLVESGGGLVQPGRSLRLSCAASGFTFDDYAMHWVRQAPGKGLEWVSGISWIRTGIGYADSVKGRFTIFRDNAKNSLYLQMNSLRAEDTALYYCAKDMKGSGTYGGWFDTWGQGTLVTVSS VL: not shown | – | – | 0.33 nM | – |
| 1D05 F to S change in VH (Seq ID No: 48), IgG1 disabled (LAGA), with 1D05 kappa V to A change (Seq ID No: 50) (antibody, V domains shown, See note of m59) VH: EVQLVESGGGLVQPGRSLRLSCAASGFTFDDYAMHWVRQVPGKGLEWVSGISWIRTGIGYADSVKGRFTISRDNAKNSLYLQMNSLRAEDTALYYCAKDMKGSGTYGGWFDTWGQGTLVTVSS VL: not shown | – | – | 1.94 nM | – |
| 1D05 V to A change in VH (Seq ID No: 47), IgG1 disabled (LAGA), with 1D05 kappa V to A change (Seq ID No: 50) (antibody, V domains shown, See note of m58) VH: EVQLVESGGGLVQPGRSLRLSCAASGFTFDDYAMHWVRQAPGKGLEWVSGISWIRTGIGYADSVKGRFTIFRDNAKNSLYLQMNSLRAEDTALYYCAKDMKGSGTYGGWFDTWGQGTLVTVSS VL: not shown | – | – | 2.8 nM | – |
| 411D07 (antibody, human IgG1, kappa, V domains shown) VH: QVQLQESGPGLVKPSGTLSLTCIVSGGSIISSDWWNWVRQPPGKGLEWIGEIFHSGRTNYNPSLKSRVTISIDKSKNQFSLRLSSVTAADTAVYYCARDGSGSYWGQGTLVTVSS VL: not shown | – | 9.06 nM | – | – |
| 386H03 (antibody, human IgG1, kappa, V domains shown) VH: QVQLQESGPGLVKPSGTLSLTCAVSGGSISSSDWWSWVRQPPGKGLEWIGEIFHSGNTNYNPSLKSRVTISVDKSKNQISLRLNSVTAADTAVYYCVRDGSGSYWGQGTLVTVSS VL: not shown | – | 0.74 nM | – | – |

The next lines start with results.

| IC50 [1] | IC50 [2] | Kd [15] | Binder | also measured |
| --- | --- | --- | --- | --- |
| 2.45 nM | 1.93 nM | – | 411C04 (antibody, human IgG1, kappa, V domains shown) VH: EVQLVDSGGGLVQPGGSLRLSCAASGFTFSSYWMSWVRQAPGKGLEWVANIKEDGSEKYYVDSLKGRFTISRDNAKNSLYLQMNSLRAEDTSVYYCARVRLYSDFLDYWGQGTLVTVSS VL: DIQMTQSPSSVSASVGDRVTITCRASQGVSSWLAWYQQKSGKAPKLLIYGASSLQSGVPSRFSGSGSGTEFILSISSLQPEDFATYYCQQANSIPFTFGPGTKVDIKR | – |
| 1.2 nM | 0.67 nM | – | 413D08 (antibody, human IgG1, kappa, V domains shown) VH: QVQLVESGGGVVQPGRSLRLSCAASGFTFRIYGMHWVRQAPGKGLEWVAVIWYDGSNKYYADSVKGRFTISRDNSDNTLYLQMNSLRAEDTAVYYCARDMDYFGMDVWGQGTTVTVSS VL: DLQMTQSPSSLSASVGDRVTITCRASQGIRNDLGWYQQKPGKAPKRLIYAASSLQSGVPSRFSGSGSGTEFTLTISSLQPEDFATYYCLQHNSYPRTFGQGTKVEIKR | – |
| – | – | 0.23 nM | 1D05 F to S change in VH (Seq ID No: 48), IgG1 disabled (LAGA), with 1D05 kappa (antibody, V domains shown, Entry 48 is a whole heavy chain; also called 1D05 HC mutant 2) VH: EVQLVESGGGLVQPGRSLRLSCAASGFTFDDYAMHWVRQVPGKGLEWVSGISWIRTGIGYADSVKGRFTISRDNAKNSLYLQMNSLRAEDTALYYCAKDMKGSGTYGGWFDTWGQGTLVTVSS VL: not shown | – |
| – | – | 2.66 nM | 1D05 - IgG1 disabled (LAGA) with 1D05 kappa, V to A change (Seq ID No: 50) (antibody, V domains shown, also called 1D05 LC mutant 1) VH: EVQLVESGGGLVQPGRSLRLSCAASGFTFDDYAMHWVRQVPGKGLEWVSGISWIRTGIGYADSVKGRFTIFRDNAKNSLYLQMNSLRAEDTALYYCAKDMKGSGTYGGWFDTWGQGTLVTVSS VL: not shown | – |
| – | 13.2 nM | – | 389A03 (antibody, human IgG1, kappa, V domains shown) VH: QLQESGPGLVKPSETLSLTCTVSGGSISSSSYYCGWIRQPPGKGLDWIGSIYSTGYTYYNPSLKSRVTISIDTSKNQFSCLILTSVTAADTAVYYCAISTAAGPEYFHRWGQGTLVTVSS VL: not shown | – |

— patent US20210380699A1 (published 2021)
